Source: patent publication US20160237160A1, “ANTI-TWEAKR ANTIBODIES AND USES THEREOF” (BAYER PHARMA AKTIENGESELLSCHAFT, priority 2013, published 2016)

Biological target: TPP-2305 (hTNFRSF12Aaa28-80) (Human) (UniProt Q9NP84)
Experiment: SPR (Biacore T100), IgG captured, TPP-2305 injected, 1:1 model

- Kd: 2.9 nM
- koff: 0.011 s⁻¹
- kon: 3.8e+06 M⁻¹ s⁻¹
B1: ITEM-1 (antibody, from another filing, mouse IgG1, V domains shown)
VH: EVKLEESGGGLVQPGGSMKLSCVASGFSFSNYWMNWVRQSPEKGLEWVAEIRLKSNNYATHYAESVKGRFTISRHDSKSSVYLQMNNLRAEDTGIYYCTRAYADYFDYWGQGTTLTVSS
VL: DIVLTQSPASLVVSLGQRATISCRASQSVSTSTYSYMHWYQQKPGQPPKILIKYASNLESGVPARFSGSGSGTDFTLNIHPVEEEDTATYYCQHSWEIPYTFGGGTKLEIKR
